Where a chain is given by its changes, count along the chain named.

Common to all, as to assay: cell-based or functional assay
The target in assay [1] is HIV-1 envelope glycoprotein gp120 of virus CHO77 (HIV-1 subtype B, virus CHO77).
The target of assay [2] is HIV-1 envelope glycoprotein gp120 of virus 92US657 (HIV-1 subtype B, isolate 92US657).
Assay [3] concerns the target HIV-1 envelope glycoprotein gp120 of virus BaL (HIV-1 BaL (lab adapted strain, subtype B)).
The target of assay [4] is Env from subtype B plasma isolates (panel of 142 HIV-1 pseudotyped viruses).
Assay [5] concerns the target HIV-1 envelope glycoprotein (Env, gp120) of virus 8318 (HIV-1).
The target in assay [6] is HIV-1 envelope glycoprotein (Env, gp120) of virus REJO (HIV-1).
Assay [7] has as its target HIV-1 envelope glycoprotein (Env, gp120) of virus 8106 (HIV-1).
Assay [8] has as its target HIV-1 envelope glycoprotein (Env, gp120) of virus 1003 (HIV-1).
Assay [9] addresses HIV-1 envelope glycoprotein (Env, gp120) of virus CHO77 (HIV-1).
Assay [10] concerns the target HIV-1 envelope glycoprotein (Env, gp120) of virus 92HT593 (HIV-1).
Assay [11] has as its target HIV-1 envelope glycoprotein (Env, gp120) of virus 8134 (HIV-1).
The target in assay [12] is HIV-1 envelope glycoprotein (Env, gp120) of virus 8110 (HIV-1).
Assay [13] has as its target HIV-1 envelope glycoprotein (Env, gp120) of virus VS004 (HIV-1).
For assay [14], the target named is HIV-1 envelope glycoprotein (Env, gp120) of virus VS039 (HIV-1).
Assay [15] addresses HIV-1 envelope glycoprotein (Env, gp120) of virus 92US727 (HIV-1).
For assay [16], the target named is HIV-1 envelope glycoprotein (Env, gp120) of virus VS046 (HIV-1).
Assay [17] has as its target HIV-1 envelope glycoprotein (Env, gp120) of virus 92US657 (HIV-1).
In assay [18] the target is HIV-1 envelope glycoprotein (Env, gp120) of virus VS044 (HIV-1).
For assay [19], the target named is HIV-1 envelope glycoprotein (Env, gp120) of virus 7103 (HIV-1).
In assay [20] the target is HIV-1 envelope glycoprotein (Env, gp120) of virus 7051 (HIV-1).
The target in assay [21] is HIV-1 envelope glycoprotein (Env, gp120) of virus VS026 (HIV-1).
For assay [22], the target named is HIV-1 envelope glycoprotein (Env, gp120) of virus VS001 (HIV-1).
Assay [23] has as its target HIV-1 envelope glycoprotein (Env, gp120) of virus 1413 (HIV-1).
In assay [24] the target is HIV-1 envelope glycoprotein (Env, gp120) of virus VS049 (HIV-1).
For assay [25], the target named is HIV-1 envelope glycoprotein (Env, gp120) of virus 7595 (HIV-1).
Assay [26] has as its target HIV-1 envelope glycoprotein (Env, gp120) of virus 1489 (HIV-1).
Assay [27] has as its target HIV-1 envelope glycoprotein (Env, gp120) of virus 8176 (HIV-1).
In assay [28] the target is HIV-1 envelope glycoprotein (Env, gp120) of virus 1012 (HIV-1).
The target of assay [29] is HIV-1 envelope glycoprotein (Env, gp120) of virus 302076 (HIV-1).
Assay [30] has as its target HIV-1 envelope glycoprotein (Env, gp120) of virus 92US712 (HIV-1).
Assay [31] concerns the target HIV-1 envelope glycoprotein (Env, gp120) of virus THRO (HIV-1).
In assay [32] the target is HIV-1 envelope glycoprotein (Env, gp120) of virus 7552 (HIV-1).
The target of assay [33] is HIV-1 envelope glycoprotein (Env, gp120) of virus VS030 (HIV-1).
For assay [34], the target named is HIV-1 envelope glycoprotein (Env, gp120) of virus VS042 (HIV-1).
For assay [35], the target named is HIV-1 envelope glycoprotein (Env, gp120) of virus 7576 (HIV-1).
Assay [36] deals with HIV-1 envelope glycoprotein (Env, gp120) of virus 8320 (HIV-1).
The target of assay [37] is HIV-1 envelope glycoprotein (Env, gp120) of virus 7015 (HIV-1).
Assay [38] deals with HIV-1 envelope glycoprotein (Env, gp120) of virus 7467 (HIV-1).
Assay [39] has as its target HIV-1 envelope glycoprotein (Env, gp120) of virus 8117 (HIV-1).
The target of assay [40] is HIV-1 envelope glycoprotein (Env, gp120) of virus 7141 (HIV-1).
Assay [41] concerns the target HIV-1 envelope glycoprotein (Env, gp120) of virus VS017 (HIV-1).
Assay [42] addresses HIV-1 envelope glycoprotein (Env, gp120) of virus VS043 (HIV-1).
The target in assay [43] is HIV-1 envelope glycoprotein (Env, gp120) of virus 7714 (HIV-1).

B1: Antibody 1.36.35-1 (antibody, human IgG1, kappa, V domains shown)
VH: QVQLVQSGAEVKKPGASVRVSCKASGYNIRDYFMHWWRQAPGQGLQWVGWINPKTGQPNNPRQFQGRVTMTRHASWDFDTFSAYMDLSRLRSDDTATYFCARQRTDYWDFDVWGQGTMVTVSS
VL: DIQMTQSPSSLSASVGDRVTITCQANGYLNWYQQKPGKAPKLLIYDGSNLETGVPSRFSGSRWGQEYTLTISSLQPEDIATYFCQVYEFVGPGTNLDIKR
With B1, the Virus Neutralization Potency (IC50) in assay [1] was 0.32 µg/mL; in assay [2], 5.37 µg/mL; in assay [3] it was above 20 µg/mL.

B2: Antibody A-1 (antibody, human IgG1, kappa)
heavy: QVQLLQSGAAVTKPGASVRVSCEASGYNIRDYFIHWWRQAPGQGLQWVGWINPKTGQPNNPRQFQGRVSLTRHASWDFDTFSFYMDLKALRSDDTAVYFCARQRSDYWDFDVWGSGTQVTVSSASTKGPSVFPLAPSSKSTSGGTAALGCLVKDYFPEPVTVSWNSGALTSGVHTFPAVLQSSGLYSLSSVVTVPSSSLGTQTYICNVNHKPSNTKVDKKVEPKSCDKTHTCPPCPAPELLAGPDVFLFPPKPKDTLMISRTPEVTCVVVDVSHEDPEVKFNWYVDGVEVHNAKTKPREEQYNSTYRVVSVLTVLHQDWLNGKEYKCKVSNKALPLPEEKTISKAKGQPREPQVYTLPPSREEMTKNQVSLTCLVKGFYPSDIAVEWESNGQPENNYKTTPPVLDSDGSFFLYSKLTVDKSRWQQGNVFSCSVLHEALHSHYTQKSLSLSPGK
light: DIQMTQSPSSLSASVGDTVTITCQANGYLNWYQQRRGKAPKLLIYDGSKLERGVPSRFSGRRWGQEYNLTINNLQPEDIATYFCQVYEFVVPGTRLDLKRTVAAPSVFIFPPSDEQLKSGTASVVCLLNNFYPREAKVQWKVDNALQSGNSQESVTEQDSKDSTYSLSSTLTLSKADYEKHKVYACEVTHQGLSSPVTKSFNRGEC
Take B2: the Median IC95 (neutralization) in assay [4] came out at 1.09 µg/mL.

B3: Antibody 1.1.104-1 (antibody, human IgG1, kappa, V domains shown)
VH: QVQLLQSGAAVTKPGASVRVSCEASGYNIRDYFIHWWRQAPGQGLQWVGWINPKTGQPNNPRQFQGRVSLTRHASWDFDTFSFYMDLKALRSDDTAVYFCARQRSDYWDFDVWGSGTQVTVSS
VL: DIQMTQSPSSLSASVGDTATITCQANGYLNWYQQRRGKAPKLLIYDGSKLERGVPSRFSGRRWGQEYTLTINNLQPEDIATYFCQVYEFFGPGTRLDLKR
Turning to B3, the Virus Neutralization Potency in assay [5] was determined as 0.32 µg/mL; in assay [6], 0.02 µg/mL; in assay [7], 2.8 µg/mL; in assay [8], 1.44 µg/mL; in assay [9] it was 0.03 µg/mL; in assay [10], 0.28 µg/mL. For the same molecule, the Virus Neutralization Potency came out at 6.07 µg/mL in [11]; 4.19 µg/mL in assay [12]; 4.8 µg/mL in assay [13]; 0.1 µg/mL in [14]; 10.6 µg/mL in assay [15]; 0.03 µg/mL in assay [16]. Moreover, the Virus Neutralization Potency in assay [17] was 0.36 µg/mL; in assay [18], 0.28 µg/mL; in assay [19], 1.82 µg/mL; in assay [20], 1.32 µg/mL; in assay [21], 0.19 µg/mL; in [22], 0.34 µg/mL. Moreover, the Virus Neutralization Potency in assay [23] was 4.34 µg/mL; in [24] it was above 100 µg/mL; in assay [25], 8.47 µg/mL; in [26], 0.28 µg/mL; in [27], 0.16 µg/mL; in assay [28], 2.87 µg/mL. Moreover, the Virus Neutralization Potency in assay [29] was 0.1 µg/mL; in [30] it was 0.04 µg/mL; in [31], 4.27 µg/mL; in [32] it was above 80 µg/mL; in assay [33], 7.9 µg/mL; in assay [34] it was 2.33 µg/mL. For the same molecule, the Virus Neutralization Potency is 1.1 µg/mL in assay [35]; 4.34 µg/mL in assay [36]; 0.67 µg/mL in [37]; 0.06 µg/mL in assay [38]; 1.22 µg/mL in [39]; 6.57 µg/mL in assay [40]. Also, the Virus Neutralization Potency in assay [41] is 2.33 µg/mL; in assay [42], 1.49 µg/mL.

B4: Antibody 1.1.119-1 (antibody, human IgG1, kappa, V domains shown)
VH: B3 VH
VL: B3 VL with T18R, R61S, N72S, N73S
Turning to B4, the Virus Neutralization Potency is 0.42 µg/mL in assay [5]; 0.03 µg/mL in assay [6]; 1.44 µg/mL in assay [7]; 0.91 µg/mL in [8]; 0.02 µg/mL in [9]; 0.15 µg/mL in assay [10]. Besides, the Virus Neutralization Potency in [11] came to 3.44 µg/mL; in assay [12], 2.37 µg/mL; in assay [13], 6.02 µg/mL; in [43] it was 1.93 µg/mL; in assay [14], 0.13 µg/mL; in [15], 43.7 µg/mL. The Virus Neutralization Potency in [16] worked out at 0.03 µg/mL; in assay [17], 0.3 µg/mL; in assay [18] it was 0.2 µg/mL; in assay [19], 1.16 µg/mL; in assay [20] it was 1.89 µg/mL; in assay [21] it was 0.14 µg/mL. For the same molecule, the Virus Neutralization Potency in assay [22] was 0.37 µg/mL; in [23], 4.52 µg/mL; in assay [24], above 100 µg/mL; in [25] it was 3.07 µg/mL; in [26], 0.17 µg/mL; in assay [27], 0.27 µg/mL. In addition, the Virus Neutralization Potency in assay [28] was 1.06 µg/mL; in assay [29], 0.08 µg/mL; in assay [30] it was 0.03 µg/mL; in assay [31] it was 2.8 µg/mL; in assay [32] it was above 80 µg/mL; in assay [33], 4.96 µg/mL. Moreover, the Virus Neutralization Potency in assay [34] was determined as 2.19 µg/mL; in [35], 0.6 µg/mL; in assay [36], 1.47 µg/mL; in [37], 1.08 µg/mL; in assay [38], 0.19 µg/mL; in assay [39], 1.66 µg/mL. Besides, the Virus Neutralization Potency amounted to 4.98 µg/mL in assay [40], 2.75 µg/mL in assay [41] and 0.81 µg/mL in assay [42].

(Values after patent US20220089698A1.)
